Where a chain is given by its changes, count along the chain named. Values belong to the binder of their own block, whether it stands above or below them.
Key:
[1] = target: T1, 大鼠血清中的补体因子D (rat serum complement factor D) (大鼠 (rat), UniProt P32038 26-263); assay: cell-based or functional assay
T1 sequence (looked up): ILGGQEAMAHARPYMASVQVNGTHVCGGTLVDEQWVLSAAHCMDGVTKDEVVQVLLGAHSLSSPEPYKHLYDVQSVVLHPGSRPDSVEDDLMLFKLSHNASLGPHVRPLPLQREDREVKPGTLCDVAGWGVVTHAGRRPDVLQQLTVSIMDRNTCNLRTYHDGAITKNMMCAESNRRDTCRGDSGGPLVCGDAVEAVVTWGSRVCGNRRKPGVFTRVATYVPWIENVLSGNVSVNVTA

人CFD蛋白 = target: T2, 人CFD蛋白 (人 (human), UniProt P00746 26-253, limits assumed); assay: BLI (Octet QK), human CFD on Ni-NTA biosensor, KH-A at 125 nM in rabbit vitreous fluid
T2 construct: also called human complement factor D

猪CFD [2] = target: T3, 猪CFD (猪 (pig), UniProt P51779 27-259, limits assumed); assay: BLI (Octet QK), antibody on Protein A biosensor, CFD transfection supernatant in solution
T3 construct: Transiently expressed in DG44 cells; The culture supernatant was used unpurified in the Octet assay; also called pig CFD; 猪(GeneID:396877)

猪CFD [3] = target: T3, 猪CFD; assay: BLI (Octet QK), His-tagged CFD supernatant on Ni-NTA biosensor, Fab at 10 μg/ml

T3 sequence (P51779 other isoform, or with tags, fused parts or gaps limits assumed): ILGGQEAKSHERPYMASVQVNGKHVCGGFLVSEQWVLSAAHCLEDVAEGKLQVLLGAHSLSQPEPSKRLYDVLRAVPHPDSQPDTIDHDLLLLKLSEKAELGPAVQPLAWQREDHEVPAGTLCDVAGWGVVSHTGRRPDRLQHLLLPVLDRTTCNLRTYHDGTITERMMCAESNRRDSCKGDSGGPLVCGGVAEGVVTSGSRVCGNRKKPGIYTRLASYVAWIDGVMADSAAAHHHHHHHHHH
T2 sequence (P00746 26-253 limits assumed): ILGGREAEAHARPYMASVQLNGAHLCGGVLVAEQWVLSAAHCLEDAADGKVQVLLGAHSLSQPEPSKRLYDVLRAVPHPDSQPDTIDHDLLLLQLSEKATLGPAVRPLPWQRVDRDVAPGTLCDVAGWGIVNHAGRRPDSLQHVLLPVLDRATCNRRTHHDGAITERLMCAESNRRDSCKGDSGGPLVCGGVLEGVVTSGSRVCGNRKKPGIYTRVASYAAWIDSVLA

IC50, 全长抗体抑制大鼠血清致兔红细胞溶血 (ACH50法, 补体旁路途径活性) [1]: 3860 µg/mL
binding result (人CFD蛋白): binds
binding result (猪CFD [2]): binds
B1: KH-A (antibody, human IgG4 S228P, kappa, V domains shown)
VH: QVQLVQSGPELKKPGASVKVSCKASGYTFTNYGMNWVRQAPGQGLEWMGWINTYTGETTYADDFKGRFVFSLDTSVSTAYLQISSLKAEDTAVYYCEREGGVNYWGQGTLVTVSS
VL: DIQVTQSPSSLSASVGDRVTITCITSTDIDDDMNWYQQKPGKVPKLLISGGATLRPGVPSRFSGSGSGTDFTLTISSLQPEDVATYYCLQSDSLPYTFGQGTKLEIKR
notes: Full-length humanized anti-complement factor D antibody expressed in CHO-S cells; also called 抗体KH-A; 全长抗体KH-A

binding result (猪CFD [3]): binds
B2: KH021 (Fab, V domains shown)
VH: B1 VH with Y104S
VL: B1 VL with M33V, A52N, L89M
notes: Fab expressed in the E. coli periplasm; also called Fab抗体KH021

binding result (猪CFD [3]): binds
B3: KH027 (Fab, V domains shown)
VH: B1 VH
VL: B1 VL
notes: Fab expressed in the E. coli periplasm; also called Fab抗体KH027

IC50, 全长抗体抑制大鼠血清致兔红细胞溶血 (ACH50法, 补体旁路途径活性) [1]: 3960 µg/mL
binding result (猪CFD [2]): binds
B4: KH-F (antibody, human IgG4 S228P, kappa, V domains shown)
VH: B1 VH with Y104S
VL: B1 VL with M33V, A52N, L89M
notes: also called 全长抗体KH-F
